± gives the standard deviation of the averaged measurements.
Tested on: Saccharomyces cerevisiae
Assay: protein stability index of tFT-peptide fusion (C-terminal peptide) (PSI (0-1 scale)); higher = more stable (slower turnover)
Conditions: temperature: 30 C
Protocol: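 MPS profiling in S. cerevisiae of the yeast C-terminome library: the last 12 aa of each annotated ORF are fused to the C-terminus of a sfGFP-mCherry timer, after a GGGS linker. Cells are FACS-sorted into 8 mCherry/sfGFP bins and deep-sequenced. PSI runs from 0 (unstable) to 1 (stable); wild type and das1Δ backgrounds, two technical replicates each.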

[1] = genetic background: das1 deletion

Sequence	protein stability index [1]	protein stability index (genetic background: wild type)
ITNFFRVLVRLV [YER067C-A C-terminal 12 aa]	0.526 ± 0.024	0.155 ± 0.0039
IVCGDGSIHWFQ [FAU1 C-terminal 12 aa]	0.735 ± 0.0094	0.769 ± 0.041
IVFTSVGAFNIL [YMR172C-A C-terminal 12 aa]	0.717 ± 0.016	0.7349 ± 0.0029
IVNIKILRRNSR [LDB16 C-terminal 12 aa]	0.796 ± 0.014	0.7813 ± 0.003
IVSFLSDETKSP [ECM18 C-terminal 12 aa]	0.7282 ± 0.0009	0.714 ± 0.011
IWLVYKLYCFIF [CST26 C-terminal 12 aa]	0.3724 ± 0.0025	0.3155 ± 0.0014
IYVCGRLTNDRK [YIL171W-A C-terminal 12 aa]	0.6871 ± 0.0066	0.65 ± 0.015
KAGEMVLKSLRR [SCP160 C-terminal 12 aa]	0.67 ± 0.028	0.783 ± 0.017
KAKSRREGTTRT [STU2 C-terminal 12 aa]	0.7121 ± 0.0033	0.694 ± 0.013
KCEEVNDGLRWK [EHD3 C-terminal 12 aa]	0.6964 ± 0.0049	0.711 ± 0.1
KCLYVQVITKSN [ECM8 C-terminal 12 aa]	0.5487 ± 0.0052	0.256 ± 0.019
KDNTVDIYDVNG [TGS1 C-terminal 12 aa]	0.687 ± 0.023	0.682 ± 0.013
KEYISDQRKKRK [LOA1 C-terminal 12 aa]	0.6823 ± 0.00078	0.722 ± 0.023
KFLRYNPLEKRD [RPB10 C-terminal 12 aa]	0.693 ± 0.012	0.704 ± 0.02
KFNLVTQRENSL [YGR025W C-terminal 12 aa]	0.697 ± 0.021	0.695 ± 0.026
KGGEDGSLVSSN [NHP10 C-terminal 12 aa]	0.688 ± 0.014	0.709 ± 0.011
KGGLEGWVKSQL [LYS4 C-terminal 12 aa]	0.808 ± 0.018	0.811 ± 0.074
KGRALENLPDES [SSM4 C-terminal 12 aa]	0.675 ± 0.016	0.692 ± 0.032
KICEVAARQKWI [AAN1 C-terminal 12 aa]	0.6888 ± 0.0048	0.627 ± 0.02
KIEVSSQESWGN [HSP26 C-terminal 12 aa]	0.68 ± 0.0024	0.693 ± 0.037
KINYDAIDGLFR [BRF1 C-terminal 12 aa]	0.71 ± 0.013	0.681 ± 0.014

Sequence	protein stability index [1]	protein stability index (genetic background: wild type)
KKGLLHKLKKKL [IST2 C-terminal 12 aa]	0.7257 ± 0.0041	0.668 ± 0.045
KKGRQERKLANR [PPZ2 C-terminal 12 aa]	0.689 ± 0.026	0.683 ± 0.029
KKKANIPKAKSA [HUT1 C-terminal 12 aa]	0.706 ± 0.0094	0.686 ± 0.013
KKKFSFFGKRKK [PAM1 C-terminal 12 aa]	0.684 ± 0.017	0.704 ± 0.048
KKKFYKQYHFDL [PDR8 C-terminal 12 aa]	0.715 ± 0.016	0.727 ± 0.035
KKKNKNKGKKKR [SRP21 C-terminal 12 aa]	0.6857 ± 0.006	0.719 ± 0.048
KKKSRMFSFRKS [UBP13 C-terminal 12 aa]	0.702 ± 0.011	0.709 ± 0.048
KKNDTPKPKPLK [SFC1 C-terminal 12 aa]	0.7063 ± 0.00074	0.678 ± 0.01
KKNRSGLRHSES [SQS1 C-terminal 12 aa]	0.683 ± 0.011	0.6606 ± 0.0038
KKPFDKKPKFNI [YKU70 C-terminal 12 aa]	0.727 ± 0.024	0.686 ± 0.017
KLCTGIVWAPRV [YAR070C C-terminal 12 aa]	0.681 ± 0.0084	0.7035 ± 0.0022
KLDIPVSFLLAA [YBL053W C-terminal 12 aa]	0.443 ± 0.0065	0.467 ± 0.044
KLKFLQNTYNND [CCE1 C-terminal 12 aa]	0.674 ± 0.015	0.635 ± 0.0079
KLLGIFPNLSNF [YLL054C C-terminal 12 aa]	0.70477 ± 0.00046	0.358 ± 0.0064
KLYNYLLSIEVY [YLR123C C-terminal 12 aa]	0.144 ± 0.013	0.191 ± 0.0098
KMDKRAKNSDSA [RPL8A C-terminal 12 aa]	0.691 ± 0.0034	0.6886 ± 0.0018
KMLDALKNERKK [HTL1 C-terminal 12 aa]	0.716 ± 0.015	0.673 ± 0.038
KMPLVPTHYYKQ [GCV1 C-terminal 12 aa]	0.706 ± 0.0089	0.6559 ± 0.00066
KNEQDEDKWDDF [GCS1 C-terminal 12 aa]	0.729 ± 0.031	0.672 ± 0.014
KNIKRDLRNVRI [TAX4 C-terminal 12 aa]	0.7 ± 0.045	0.6514 ± 0.0059
KNRYLHLLEQHK [BET4 C-terminal 12 aa]	0.692 ± 0.018	0.67 ± 0.04

Sequence	protein stability index [1]	protein stability index (genetic background: wild type)
KPLLTSIFPNHK [YBL012C C-terminal 12 aa]	0.718 ± 0.064	0.667 ± 0.0098
KPLYYRIYRFFC [MMP1 C-terminal 12 aa]	0.764 ± 0.013	0.537 ± 0.0091
KQIAKQSSKMMK [VMR1 C-terminal 12 aa]	0.686 ± 0.0041	0.708 ± 0.03
KQKKQQAQPLRK [VRG4 C-terminal 12 aa]	0.704 ± 0.012	0.673 ± 0.026
KQLQEGNRRHKL [DCI1 C-terminal 12 aa]	0.768 ± 0.0084	0.808 ± 0.15
KSEEAKKRTSLY [YBR124W C-terminal 12 aa]	0.694 ± 0.013	0.679 ± 0.023
KSLFSIIDDLQS [MSH6 C-terminal 12 aa]	0.731 ± 0.0073	0.727 ± 0.021
KTFWDKFWNVVA [CAN1 C-terminal 12 aa]	0.735 ± 0.03	0.193 ± 0.014
KTGKSSVIDLQR [GCN2 C-terminal 12 aa]	0.712 ± 0.031	0.726 ± 0.11
KTRWQRVWDVLS [ALP1 C-terminal 12 aa]	0.7259 ± 0.0053	0.207 ± 0.01
KTSSKGNARTLL [FMP49 C-terminal 12 aa]	0.698 ± 0.025	0.709 ± 0.0091
KVETVLNKMFEK [REC114 C-terminal 12 aa]	0.701 ± 0.015	0.687 ± 0.022
KVIRGKGFKLPK [ERD2 C-terminal 12 aa]	0.675 ± 0.0093	0.667 ± 0.036
KVLACYEEIDDY [UBC11 C-terminal 12 aa]	0.679 ± 0.0098	0.712 ± 0.059
KYEPTQEIIEDI [ITR1 C-terminal 12 aa]	0.693 ± 0.036	0.702 ± 0.048
KYNNYFKIPPKY [BI3 C-terminal 12 aa]	0.688 ± 0.022	0.659 ± 0.018
LAKLINKSCVFK [YKL069W C-terminal 12 aa]	0.7 ± 0.023	0.642 ± 0.029
LARGGVASFTVK [RNH70 C-terminal 12 aa]	0.703 ± 0.0078	0.652 ± 0.0088
LARLKTCVLLIN [YML122C C-terminal 12 aa]	0.544 ± 0.017	0.154 ± 0.0076
LCGAPNCKGFLN [SET1 C-terminal 12 aa]	0.677 ± 0.026	0.671 ± 0.036
LEKSTNPIKKNN [VOA1 C-terminal 12 aa]	0.703 ± 0.023	0.765 ± 0.038

Sequence	protein stability index [1]	protein stability index (genetic background: wild type)
LEKVLNQIGLKN [YNL011C C-terminal 12 aa]	0.6874 ± 0.0064	0.6425 ± 0.0062
LEPQESKPTIDH [AIM34 C-terminal 12 aa]	0.697 ± 0.018	0.6899 ± 0.005
LFCYCSCDSYES [YBL100C C-terminal 12 aa]	0.646 ± 0.017	0.668 ± 0.031
LFDARFERKNPH [SRB8 C-terminal 12 aa]	0.737 ± 0.025	0.7112 ± 0.0032
LGFIQNSTIVCQ [YMR306C-A C-terminal 12 aa]	0.467 ± 0.028	0.494 ± 0.019
LGKKKPPSRLFR [CDC25 C-terminal 12 aa]	0.707 ± 0.019	0.715 ± 0.035
LGLSLRRGTEIW [MRP8 C-terminal 12 aa]	0.72702 ± 0.00035	0.72218 ± 0.00069
LGSNCVFLAIFR [YPL222C-A C-terminal 12 aa]	0.674 ± 0.032	0.648 ± 0.02
LHTEREKKKKKF [YKR040C C-terminal 12 aa]	0.725 ± 0.043	0.682 ± 0.1
LHVVSSAYFEIQ [YEL075C C-terminal 12 aa]	0.674 ± 0.041	0.626 ± 0.044
LICQTESNPKIV [VPS8 C-terminal 12 aa]	0.708 ± 0.0091	0.694 ± 0.036
LIVSFFYKRNAL [IQG1 C-terminal 12 aa]	0.667 ± 0.018	0.584 ± 0.015
LIVSYCASVAFG [ATG12 C-terminal 12 aa]	0.366 ± 0.013	0.382 ± 0.0029
LKDQIVETRTPI [ERG27 C-terminal 12 aa]	0.707 ± 0.042	0.664 ± 0.02
LKLKRDLLRLKR [CIP1 C-terminal 12 aa]	0.682 ± 0.019	0.651 ± 0.021
LKQTVESLIKEL [VPS51 C-terminal 12 aa]	0.66 ± 0.0088	0.711 ± 0.072
LKSATESFVATF [ATP1 C-terminal 12 aa]	0.701 ± 0.0097	0.694 ± 0.014
LKSVKHSIRVYT [YPR012W C-terminal 12 aa]	0.627 ± 0.015	0.604 ± 0.028
LLFGDEVVACKD [YDL172C C-terminal 12 aa]	0.722 ± 0.017	0.691 ± 0.011

From the supplement of paper PMC10724198
